Test results: PMC2734569, “Functional mapping of the fission yeast DNA polymerase δ B-subunit Cdc1 by site-directed and random pentapeptide insertion mutagenesis” (BMC Molecular Biology, 2009)
Substitutions are numbered along the chain they refer to.

Tests used:
Experiment in all cases: two-hybrid; LexA-Cdc1 bait (pBTM116 or pBTM116BN) with Gal4 activation domain-Cdc27 prey (pGAD2F-Cdc27) in S. cerevisiae CTY10-5d; ONPG liquid culture beta-galactosidase assay, mean of triplicates, as percent of wild-type Cdc1
Conditions in all cases: partners not purified
Cdc1-A1 = target: T1, Cdc1-A1 (Schizosaccharomyces pombe, UniProt P87324 1-462, Pro292Ala)
T1 construct: Cdc1, S. pombe, point mutant; source: yeast two-hybrid fusion, in S. cerevisiae CTY10-5d
T1 sequence (looked up): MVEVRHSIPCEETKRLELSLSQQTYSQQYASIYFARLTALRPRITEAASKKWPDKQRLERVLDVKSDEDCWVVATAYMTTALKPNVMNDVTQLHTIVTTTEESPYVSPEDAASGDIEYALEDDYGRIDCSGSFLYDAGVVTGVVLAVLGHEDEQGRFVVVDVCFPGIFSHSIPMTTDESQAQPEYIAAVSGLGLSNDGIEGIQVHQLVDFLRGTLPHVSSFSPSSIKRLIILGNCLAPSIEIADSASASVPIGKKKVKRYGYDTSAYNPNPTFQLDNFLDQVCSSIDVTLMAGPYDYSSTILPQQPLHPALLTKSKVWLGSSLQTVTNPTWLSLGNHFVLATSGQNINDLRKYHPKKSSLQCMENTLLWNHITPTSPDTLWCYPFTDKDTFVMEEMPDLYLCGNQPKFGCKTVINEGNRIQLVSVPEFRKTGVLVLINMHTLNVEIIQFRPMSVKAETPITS

Cdc1-J12 = target: T2, Cdc1-J12 (Schizosaccharomyces pombe, UniProt P87324 1-462, Ser-GlyValProHisSer-Ile)
T2 construct: Cdc1, S. pombe, with a pentapeptide inserted after residue 7; source: yeast two-hybrid fusion, in S. cerevisiae CTY10-5d
T2 sequence (looked up): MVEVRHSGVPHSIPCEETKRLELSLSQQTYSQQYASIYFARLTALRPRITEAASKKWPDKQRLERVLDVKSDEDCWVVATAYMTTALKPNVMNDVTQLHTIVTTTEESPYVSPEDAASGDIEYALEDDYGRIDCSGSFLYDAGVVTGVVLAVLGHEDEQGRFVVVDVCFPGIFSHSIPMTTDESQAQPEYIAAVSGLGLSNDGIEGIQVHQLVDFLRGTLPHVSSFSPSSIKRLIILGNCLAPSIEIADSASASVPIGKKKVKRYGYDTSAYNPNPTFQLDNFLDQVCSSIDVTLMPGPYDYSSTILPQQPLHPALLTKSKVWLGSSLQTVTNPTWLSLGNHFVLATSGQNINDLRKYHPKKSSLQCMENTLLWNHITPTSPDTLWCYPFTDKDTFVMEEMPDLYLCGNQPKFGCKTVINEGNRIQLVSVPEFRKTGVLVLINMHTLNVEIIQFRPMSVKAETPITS

Cdc1-J15 = target: T3, Cdc1-J15 (Schizosaccharomyces pombe, UniProt P87324 1-462, Gln-GlyValProLeuGln-Val)
T3 construct: Cdc1, S. pombe, with a pentapeptide inserted after residue 203; source: yeast two-hybrid fusion, in S. cerevisiae CTY10-5d
T3 sequence (looked up): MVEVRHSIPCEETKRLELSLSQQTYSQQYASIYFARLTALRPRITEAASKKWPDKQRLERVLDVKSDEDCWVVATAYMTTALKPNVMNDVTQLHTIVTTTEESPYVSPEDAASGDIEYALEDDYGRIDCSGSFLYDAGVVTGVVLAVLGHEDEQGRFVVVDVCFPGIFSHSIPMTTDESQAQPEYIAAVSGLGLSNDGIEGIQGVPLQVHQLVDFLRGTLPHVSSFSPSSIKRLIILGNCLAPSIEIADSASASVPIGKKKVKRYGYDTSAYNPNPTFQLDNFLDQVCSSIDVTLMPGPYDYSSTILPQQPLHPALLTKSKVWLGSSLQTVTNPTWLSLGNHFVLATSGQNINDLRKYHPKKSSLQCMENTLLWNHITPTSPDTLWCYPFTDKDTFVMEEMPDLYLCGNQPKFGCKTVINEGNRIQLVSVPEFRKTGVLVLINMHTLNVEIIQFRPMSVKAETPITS

Cdc1-A2 = target: T4, Cdc1-A2 (Schizosaccharomyces pombe, UniProt P87324 1-462, Gly293Ala)
T4 construct: Cdc1, S. pombe, point mutant; source: yeast two-hybrid fusion, in S. cerevisiae CTY10-5d
T4 sequence (looked up): T1 sequence (looked up) with A292P, G293A

B1: Cdc27 (fission yeast DNA polymerase delta C-subunit) (natural protein, Schizosaccharomyces pombe, UniProt P30261 1-372, looked up)
chain: MEEWRNFLDIKVINESSLVTVDNLSLQLDISSEKAQEYLNMFYQGNDFLYPIYLIHGQPIDDEINLEIDEESQPISNFPVLQYILCDKSSLQEKQSRLKSGYKTVIFALSSAPLSDFDELLPAVYEIREKDVLYKKEDADKYGFIFNENSVPRVLKKAPSTHSPQLSVPSKTSTIDKTDTRSTEKTKGKDIFSNARNQKGNSSRKNKKAPLENHKEKEPLLPKEEKLSEQAKRERDDLKNIMQLEDESVSTTSVHDSEDDNLDSNNFQLEIGTEAKSAAPDEPQEIIKSVSGGKRRGKRKVKKYATTKDEEGFLVTKEEEVWESFSEDENISTGTSNVVRNKPTTVNIATKKKNTAQSKPQQKSIMSFFGKK
notes: DNA polymerase delta C-subunit Cdc27, S. pombe; prey plasmid pGAD2F-Cdc27; also called pGAD2F-Cdc27; source: yeast two-hybrid fusion, in S. cerevisiae CTY10-5d
two-hybrid beta-galactosidase activity, % of wild-type Cdc1 (Cdc1-A1): 44%
two-hybrid beta-galactosidase activity, % of wild-type Cdc1 (Cdc1-J12): 59%
two-hybrid beta-galactosidase activity, % of wild-type Cdc1 (Cdc1-J15): 78%
two-hybrid beta-galactosidase activity, % of wild-type Cdc1 (Cdc1-A2): 19%
